Laboratory results reported in the nanobody polyreactivity screen of Harvey et al. (2022).

Assay: yeast display, Sf9 membrane polyspecificity reagent, FACS + sequencing; frameworks hold sequencing errors
Outline: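 In a synthetic yeast display library (Saccharomyces cerevisiae BJ5465), nanobody expression was induced with galactose for 36–48 hours. FACS gates were set low and high (top ~1%) using anti-HA fluorescence for expression and streptavidin fluorescence for binding of the Sf9 membrane reagent. Each polyreactivity label is drawn from the gate of origin.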

Sequence | polyreactivity (PSR sort gate)
QVQLVESGGGLVQAGGSLRLSCAASGSTFYYNGMGWYRQAPGKERELVARITRTGGSTYYADSVKGRFTISRDNAKNTVYLQMNSLKPEDTAVYYCNADYYSRTKRKYRYGYWGQGTQVTVSS | high polyreactivity
QVQLVESGGGLVQAGVSLRLSCAASGFIFYWYVMGWYRHAPGKERELVAGISKNGTNTYYADSVKGRFTISRDNAKNTVYLQMNSLKPEDTAVYYCAAAKCRTKYDYWGQGTQVTVSS | high polyreactivity
QVQLVESGGGLVQAGGSLRLSCAASGIIFNANTMLWYRQAPGKERELVAAITRGGSTNYADSEKGRFTISRDNAKNTVYLQMNSLKPEDTAVYYCAARTGYYCGSGGNRYISPYDYWGQGTQVTVSS | low polyreactivity
QVQLVESVGGLVQAGGSLRLSCAASGRIFVNAMGWYRPAPGKESEVVAAINTRGGSTYYADSVKGRFTISRDNAKNTVYLQLNSLKPEDTAVYYCAARFYTSSRYNYWGQGTQGTVSS | high polyreactivity
QVQLVESGGGLVQEGGSLRLSCAASGIIFLDNAMGWYRQAPGKERELVAAITTGGITYYADSVKGRFTISRDNAKNTVYLQMNSLKPEDTAVYYCATDPVNSGYQRYYYWGQGTQVTVSS | low polyreactivity
QVQLVESGGGLVQAGGSLRLSCAASGSTYHKDAMAWYRQAPGKERELVAAISNGGRTYYADSVKGRFTISRDNAKNTVYLKRNSLKPEATAVYYCAAVPRRGWDIRRYDSWGQGTQVTVSS | high polyreactivity
QVQLVESGGGLVQAGGSLRLSCAASGFIFGRYTMGWYRQAPWKERELVAAISGSGGRTYYADSVKGRFTISRDNAKNTVYLQMNSLKPEDTSVYYCATYGYFYYDYWGQGTQVTVSS | high polyreactivity
QVQLVESGGGLVQAGGSLRLSCAASGSIFGRNAMGWYRQAPGKEREFVAAISQRGGRTYYADSVKGRFTISRDNAKNTVYLQMNSLKPEDTAVYYCAATYTRVPNRFYYWGQGTQVTVSS | high polyreactivity
QVQLVESGRGLVQAGGSLRLSCAASGSTFQYYAMGWYRPATGKERELDAAINSRGTSTFYADSVKGRFTISRDNAKNTVYLQMNSLKPEDTAVDYCNARGPRYGNRYRNDYWGQGTQGTVSS | high polyreactivity
QVQLVESGGGLVQAGGSLRLSCAASGSTFYYYAMGWYRQAPGKERELVASINKIVGITDYADSVKGRFTISRDNAKNTGYLQRNSLTPEDTAVYYCAAHGRINPDVPRTDFFASEEDYWGQGTQVTVSS | low polyreactivity
QVQLVESGGGLVQAGGSLRLSCAASGRTFYRNAMGWYRQAPGKERELVAAIRGSGSSTYYADSVKGRFTISRDNAKNTVYLQMNSLKPEDTAVYYCAADYITYNGYARYYYWGQGTQVTVSS | high polyreactivity
QVQLVESGGGLVQAGGSLRLSCAASGSIFVTYAMGWYRQAPGKERELVAAISTSGGSTYADSVKGRFTISRDNAKNTVYLQMNSLKPEDTAVYYCNADDPGYAVPWYWFKSDYWGQGTQVTVSS | low polyreactivity
QLQLVESGGGLVQAGGSLRLSCAASGRIFKLNAMGWSRQAPGKERELVAAINSGTRTYYADSVKGRFTISRDNAKNTVYLQMNSLKPEDTAVYYCAAEGVWWYSRYDYWGQGTQVTVSS | high polyreactivity
QVQLVESGGGLVQAGGSLRLSCAASGRILYQYAMAWYRQAPGKERELVASISGRSGRTRYADSVKGRFTISRDNAKNTVYLQMNSLKPEDTAVYYCNAGSSVLKYDYWGQGTQVTVSS | low polyreactivity
QVQHVESGGGVVQAVGSLRLSCAASGYIFRTNAMGWYRQARGKERELVAAITRSGGRTYYADSVKGRFTISRDNAKNTVYLQMNSLKPEDTAVYYCAAGGRKPVITGDYWGQGTQVTVSS | high polyreactivity
QVQLVESGGGLVQAGGSLRLSCAASGITFGRNTMGWYRQAPGNERELVAAIDSGGNTYADSVKGRFTISRDNAKNTFYLQMNSLKPEDTAVYYCCVDGGEFSSYGYWGQGTQVTVSS | low polyreactivity
LVQLVESGGGLVQAGGSLRLSCAASGSTFDYYAMGWYRQAPGQERELVAAISGSGDRTYYADSVKGRFTISRDNAKNTVYLQMNSLKPEDTAVYYCAKYGRTRFYYWGQGTQVTVSS | high polyreactivity
QVQLVESAGGLVQAGGSLRLSCAASGITFAWYAMGWYRQAPGKERELVAAITRGGGSTYYADSVKGRFTISRDNAKNTVYLQMNSLKPEATAVYYCAARPYSYPYGYWGQGTQVTVSS | low polyreactivity
QGQLVESGGGLVQAGGSLRLSCAASGSTFPPYRMGWYRQAPGKERELVAAITWRGGRTYYADSVKGRFTISRDNAKNTVYLQMNSLKREDTAVYYCAADYPYQYGRYAGSPGAGRYYWGQGTQVTVSS | high polyreactivity
QVQLVESGGGLVQAGGSLRLSCAASGSTFVGYAMVWYRQAPGKERELVAAISYSGGSTYYADSVKGRFTISRDNAKNTVYLQMNSLKPEDTAVYYCAAEWSRHYYSGPRYDSWGQGSQVTVSS | low polyreactivity
QVQLVESGGGLVQAGGSLRLSCAASGRTFTSNAMGWYRQAPGKERELVAAITQSGGSTYYADSVKGRFTISRDNAKNTVYLQMNSLKPEDTAVYYCNAETTGRTEYNYWGQGTQVTVSS | low polyreactivity
QVQLVELGGGLVQAGGSLRLSCAASGGTFPRYAMGWYRQAPGKERELVAAITSRGDRTYYADSVKGRFTISRDNAKNTVYLQMNSLKPEDTAVYYCAARLYYSSYGRVKMDYWGQGTQVTVSS | high polyreactivity

Sequence | polyreactivity (PSR sort gate)
QVQLVESGGGLVQAGGSLRLSCAASGFTFYWYTMGGYRQAPGKDRELVAAISGSGGRTYYADSVKGRFTISRDNAKKTVYLQMNSLKPEDTAVYYCAARGRYAYPRYGYYPVNYWGQVTQVTVSS | high polyreactivity
QVQLVESGGGLVQAGGSLRLTCDASGITYYGYAIGWSRQAPGKEREWVAGINNGGSTTYADSVKGRFTISRDNAKITVYLQMNSVKPEDTAVYYCAADPVYLNKLLYYVGQAYYYWGQGTQVTVSS | high polyreactivity
QGQLVESGGGLVQAGGSLRLSCAASGSTFAYYAMGWYRQAPGKERELVAAINTTTGSTFYADSVKGRFTISRDNAKNTVYLQMNSLKPEDTAGYYCAAGVTGPSDDYDYWGQGTQVTVSS | low polyreactivity
QVQLVESGGGLLQAGGSLLLSCAASGITFYDNAMGWYRQAPGKERELVAGISYDGDSTYADSVKGRFTISRDNAKNTVYLQMNSLKPEDTAVYYCAALGPYEWLWAGDYWGQGTQVTVSS | low polyreactivity
QVQLVESGGGLVQAGGSLRLSCAASGITFFRNAMGWYRQAPGKERELVAVITYSGGRTSYADSVKGRFTISRDNAKNTVYLQMNSLKPEDTAVYYCATEKWQSSPGYTYYFVEYDYWGQGTQVTVSS | low polyreactivity
QVQLLESGGGLVQVGGSLRLSCAASGTIFIYGFLGWNRQAPGKERELVASINLGGITNYADSEKGRFTISRDNAINTGFLQMISLKPEDTAVYYCAAYVVTCQNYGYWGHGTQVTVSS | low polyreactivity
QVQLVEAGRGLVHAGGSLRLSCDPSGLTFSRYAMGWYRPAPGKESELVPAISSRGGTTYYADSVKGRFTISRDYAKNTVYLQMYSMKPEDTAVYYCAAGYITWGSGNWVVTPYDVWGQGTQVTVSS | high polyreactivity
QVQLVESGGGLVQAGGSLRLSCAASGLTFKYYAMGWYRQATGKERELVARISRGGNTNYADSVKGRFTISRDNAKNTVYLQMNSLKPEDTAVYYCAATVRVYDYWGQGTQVTVSS | high polyreactivity
QVQLVESGGGLVQAGGSLSLSCAASGFTFPLYAMGWYRPAPGKERELVASISKSGGRTYYADSVKGRFTISRDNAKNTVYLQMNSLKPEDTAVYYCATLPRYYGYWGQGTQVTVSS | high polyreactivity
QVQLVESGGGLVHAGGSLRLSCAASGSTFSWYVMGWYRQAPGKERELVAAISYRGGRTYYADSVKGRFTISRDNAKNTVYLHMNSLKTEDTAVYYCAARGVVDAGRTNRPYDYWGQGTQVTVSS | low polyreactivity
QVQLVESGGGLVQAGGSLRLSCAASGSTFYYYVMGWYRQAPGKERELVAAISSGGHTNYADSVKGRFTISRDNAKNTVYLQMNSLKPEDTAVYYCAAKPWRGTLLRYGYWGQGTQVTVSS | high polyreactivity
QVQLVESGGGLVQAGGSLRLSCAASGITFSHYAMGWYRQAPGKERELVAGITWSGGRTYYADSVKGRFTISRDNAKNTVYLQMNSLKPEDTAVYYCAPIHRTGYDMDYWGQGTQVTVSS | low polyreactivity
QVQLVESGGGLVQAGGSLRLSCAASGFTFRTYAMGWYTQAPGKERELVADISGSGGSTYYADSVKGRFTISRDNAKNTVYLQMNSLKPEDTAVYYCAADYASWSNWGYEYWGQGTQVTVSS | high polyreactivity
QVQLVESGGGLVQAGGSLRLSCAASGRIDLYNDMGWYRQAPGKERELVAAITWRSGSTYYADSVKGRFTFSRDNAKNTFYCQMNSLNPEDTAVYYCAKRGSGYKQDFKSYSGHYWGHGTQVTVSS | high polyreactivity
QVQLVESGGGLVQAGGSLRLSCAASGSTFINYAMGWYRQAPGKERELVAAISRSGGTTYYADSVKGRFTISRDNAKNTVYLQMNSLKPEDTAVYYCNATLGSYARTRYYYWGQGTQVTVSS | high polyreactivity
QVQLVESGGGLVQAGGSLRLSCAASGRTFVSYAMGWYRQAPGKERELVADITIGGSTNYADSVKGRFTISRDNAKNTVYLLMNSLKPEDTAVYDCAAYYSYPWDTVTTVDLYDYWGQGTQVTVSS | low polyreactivity
QVQLVESGGGLVQAGGSLRLSCAASGSIFRGNALGWYRQAPGKERELVATITNGGSTNYADSVKGRFTISRDNAKNTVYLQMNSLKPEDTAVYSCNADHSYHIASTRHVDYWGQGNQVTVSS | low polyreactivity
QVQLVESGGGLVQAGGSLRLSCAASGIIFLENAMGWYRQAPGKEREFVAAISRSGGITYYADSVKGRFTISRDNAKNTVYLQMNSLKPEDTAVYYCAAVGRDRYRHSPQPLYDYWGQGTQVTVSS | low polyreactivity
QVQLVESGGGLVQAGGSLRLSCAASGFIFTDYAMGWYIQAPGKERELVAGISGSGGRTYYADSVKGRFTISRDNAKNTVYLQMNSLKPEDTAVYYCAARGVPWLWYFRGMYWGQGTQVTVSS | high polyreactivity
QVQLVESGGGLVQAGGSLRLSCAASGGIFSYYAMGWYRQAPGKEREFVAAIDWGGGSTYYADSVKGRFTISRDNAKNTVYFQMNSLKPEDTAVYYCAAEIYPIGWDDYDYWGQGTQVTVSS | low polyreactivity
QVQLVESGGGLVQAGGSLRLSCAASGSTLVTYAMGWYRQAPGKERELVAAISWRGGSTYYADSVKGRFTISRDNAKNTVYLQMNSLKPEDTAVYYCIKLRAYKESETYYYWGQGTQVTVSS | low polyreactivity
